Source: patent US20220235118A1 (IMMUNOME, published 2022)

Key:
[1] = molecular target: T1, SARS-CoV-2 Spike RBD N439K (SARS-CoV-2, UniProt P0DTC2 319-541); assay: HTRF, soluble RBD construct
T1 construct: domain: RBD

[2] = molecular target: T2, SARS-CoV-2 Spike S1 domain D614G (SARS-CoV-2, UniProt P0DTC2 16-685); assay: HTRF, soluble S1 construct
T2 construct: domain: S1

[3] = molecular target: T3, SARS-CoV-2 Spike S1 domain A222S, D614G (SARS-CoV-2, UniProt P0DTC2 16-685); assay: HTRF, soluble S1 construct
T3 construct: domain: S1; also called Spanish (A222S, D614G)

[4] = molecular target: T4, SARS-CoV-2 Spike S1 domain K417N, E484K, N501Y, D614G (SARS-CoV-2, UniProt P0DTC2 16-685); assay: HTRF, soluble S1 construct
T4 construct: domain: S1; also called S. African (K417N, E484K, N501Y, D614G); B.1.351

[5] = molecular target: T5, SARS-CoV-2 Spike S1 domain ΔHV69/70, ΔY144, N501Y, A570D, D614G, P681H (SARS-CoV-2, UniProt P0DTC2 16-685); assay: HTRF, soluble S1 construct
T5 construct: domain: S1; also called U.K. (B.1.1.7); DHV69/70, DY144, N501Y, A570D, D614G, P681H

[6] = molecular target: T6, SARS-CoV-2 Spike S1 domain ΔHV69/70, Y453F, D614G (SARS-CoV-2, UniProt P0DTC2 16-685); assay: HTRF, soluble S1 construct
T6 construct: domain: S1; also called Denmark (ΔHV69/70, Y453F, D614G); DHV69/70, Y453F, D614G

[7] = molecular target: T7, SARS-CoV-2 Spike RBD E406Q (SARS-CoV-2, UniProt P0DTC2 319-541); assay: HTRF, soluble RBD construct
T7 construct: domain: RBD

[8] = molecular target: T8, SARS-CoV-2 Spike RBD K417N (SARS-CoV-2, UniProt P0DTC2 319-541); assay: HTRF, soluble RBD construct
T8 construct: domain: RBD

[9] = molecular target: T9, SARS-CoV-2 Spike RBD N501Y (SARS-CoV-2, UniProt P0DTC2 319-541); assay: HTRF, soluble RBD construct
T9 construct: domain: RBD

[10] = molecular target: T10, SARS-CoV-2 Spike RBD Y453F (SARS-CoV-2, UniProt P0DTC2 319-541); assay: HTRF, soluble RBD construct
T10 construct: domain: RBD

[11] = molecular target: T11, SARS-CoV-2 Spike RBD A352S (SARS-CoV-2, UniProt P0DTC2 319-541); assay: HTRF, soluble RBD construct
T11 construct: domain: RBD

[12] = molecular target: T12, SARS-CoV-2 Spike RBD A475V (SARS-CoV-2, UniProt P0DTC2 319-541); assay: HTRF, soluble RBD construct
T12 construct: domain: RBD

Row | Binder | fold over background [1] [fold over background] | fold over background [2] [fold over background] | fold over background [3] [fold over background] | fold over background [4] [fold over background] | fold over background [5] [fold over background] | fold over background [6] [fold over background] | fold over background [7] [fold over background] | fold over background [8] [fold over background] | fold over background [9] [fold over background] | fold over background [10] [fold over background] | fold over background [11] [fold over background] | fold over background [12] [fold over background]
1 | PR194_00068 (antibody, V domains shown) VH: EVQLLESGGGLVQPGGSLRLSCSASGFTFTNYAMSWVRQAPGKGLEWVSTISGSGGSTYYADSVKGRFTISRDNSKSTLFLQMNSLRAEDTAIYYCANSGPTGDLDYWGQGTLVTVSS VL: SYELTQPPSVSVSPGQTTLSLTCSGDKLGNKYVCWYQQKPGQSPVLVIYQDTKRPSGIPERVSGSNSGDTATLTISGTQAMDEADYYCQAWDSSTAVFGGGTKLTVL | 1.06 | – | – | – | – | – | – | – | – | – | – | –
2 | PR196_00413_a (antibody, V domains shown) VH: QVQLVQSGAEVKKPGSSVKVSCKASGGTFSSYAITWVRQAPGQGLEWMGGIIPIFGTANYAQKFQGRVTITADESTSTAYMELSSLRSEDTAVYYCASDYGDSPLGYWGQGTLVTVSS VL: not shown | 1.07 | 9.92 | 8.74 | 9 | 6.39 | 9.68 | 1.02 | 1.06 | 1.08 | 1.06 | 1.07 | 1.01
3 | PR194_00453 (antibody, V domains shown) VH: QLQLQESGPGLVKPSETLSLTCTVSGGSISSSSSYWGWFRQPPGKGLGWIRSIYYSGSTYYNPSLKSRVTMSVDTSKNQFSLKLSSVTAADTAVYYCARAKFSVWDNYRYPFDYWGQGILVTVSS VL: not shown | 1.05 | 9.55 | 9.21 | 9.57 | 9.06 | 9.45 | 0.99 | 1.1 | 1.03 | 0.987 | 1.11 | 1.06
4 | PR199_00255 (antibody, V domains shown, also called IMM20279; PR190_00255) VH: QVQLVESGGGVVQPGRSLRLSCAASGFTFSTYGMHWVRQAPGKGLEWVAVIWYNGINKHYADSVKGRFTISRDNSKNTLYLQMSSLRVEDTAVYYCARDWGTLTTLFDFWGQGTLVTVSS VL: DIQMTQSPSSLSASVGERATITCRASQSISSHLNWYQQKPGKAPKFLIYGASSLQSGVPSRFSGSGSGTDFTLTISSLQPEDFATYYCQQSYSTPPWTFGQGTKVEIK | 6.09 | 11.2 | 9.3 | 9.48 | 7.29 | 9.63 | 10.9 | 7.29 | 6.15 | – | 8.26 | 7.64
5 | PR197_00647 (antibody, V domains shown) VH: QVQLVESGGGVVQPGRSLRLSCAASGFTFSSYAMHWVRQAPGKGLQWVTLISYDGGDKYYADSVRGRFTISRDNSKNTLYLQMNSLRTEDTAVYYCARDRPQTGDWFPPIPTGVLDVWGQGTTVTVSS VL: DIQMTQSPSSLSASVGDRVTITCRASQGISNYLAWFQQKPGKAPKSLIYAASSLQSGVPSRFSGSESGTDFTLTISSLQPEDFATYYCQQYHSYPITFGQGTRLEIK | 1.04 | 8.3 | 9.54 | 7.72 | 1.1 | 1.07 | 1.03 | 1.03 | 1.06 | 1.11 | 1.04 | 0.999
6 | PR194_00364_b (antibody, V domains shown) VH: EVQLVESGGGLVKPGGSLRLSCSASGFTFTTYTMNWVRQAPGKGLEWVSSISSTGLSIYYADSVKGRFTISRDNAKNSLYLQMNSLRAEDTAVYYCARDPSPTTIYYYYYMDVWGKGTTVTVSS VL: QSALTQPASVSGSPGQSITISCTGTSSDVGTYNLVSWYQHYPGKAPKLIIYEVSKRPSGVSDRFSGSKSGNTASLTISGLQAEDEADYYCCSYAGSTTGYVVFGGGTKLTVL | – | – | – | – | – | – | – | – | – | – | 0.917 | –
7 | PR194_00292 (antibody, V domains shown) VH: QVQLQQWGAGLLKPSETLSLTCAVYGGSLSGYYWSWIRQPPGKGLEWIGEINHSGSTNHNPSLKSRVSISVDTSKNQFSLKLSSVTAADTAVYYCARAWKYSSSWYSGGIYYGMDVWGQGTTVTVSS VL: QSALTQPASVSGSPGQSITISCSGTSSDVGSYNLVSWYQQHPGKAPKLMIYEGTKRPSGVSNRFSSSKSGNTASLTISGLQAEDEADYYCCSYAGFSTWVFGGGTKLTVL | 1.06 | 1.06 | 1.02 | 2.26 | 2.37 | 2.59 | 0.967 | 1.03 | 0.996 | 0.974 | 0.94 | 1.02
8 | PR201_00151 (antibody, V domains shown) VH: RVTLRESGPALVKPTQTLTLTCTFSGFSLNTSGMCVSWIRQPPGKALEWLARIDWDDDKYYSTSLETRLTISKDTSKNQVVLTMTNLDPVDTGTYYCARISIQSRGGGADYWGQGTLVTVSS VL: DIQMTQSPSSLSASVGDRVTITCRASQSISSYLHWYQQKSGKAPKLLIFVASTLQSGVPSRFSGSGSGTDFTLTISSLQPEDSAAYYCQQSYSPPWTFGQGTKVEIK | 6.03 | 7.25 | 7.29 | 1.05 | 4.22 | 6.53 | 8.3 | 1.09 | 6.16 | 5.48 | 7.06 | 5.7
